Measurements: patent US5310662

Experiments:
[1] = tested on: hGR G471 471G (Homo sapiens); details: immunoprecipitation DNA binding; transcription 10
[2] = tested on: hGR G460 460G (Homo sapiens); details: immunoprecipitation DNA binding; transcription 55
[3] = tested on: hGR G474 474G (Homo sapiens); details: immunoprecipitation DNA binding; transcription 60
[4] = tested on: hGR G465 465G (Homo sapiens); details: immunoprecipitation DNA binding; transcription 1
[5] = tested on: hGR G462 462G (Homo sapiens); details: immunoprecipitation DNA binding; transcription 80
[6] = tested on: hGR-SB (human glucocorticoid receptor, wild-type-equivalent parent) (Homo sapiens); details: immunoprecipitation DNA binding, reference; transcription 100
[7] = tested on: hGR G477 477G (Homo sapiens); details: immunoprecipitation DNA binding; transcription <1
[8] = tested on: hGR G453 453G (Homo sapiens); details: immunoprecipitation DNA binding; transcription 90
[9] = tested on: hGR G444 444G (Homo sapiens); details: immunoprecipitation DNA binding; transcription <1
[10] = tested on: hGR G481 481G (Homo sapiens); details: immunoprecipitation DNA binding; transcription <1
[11] = tested on: hGR G442 K442G (Homo sapiens); details: immunoprecipitation DNA binding; transcription <1; specificity minimally affected
[12] = tested on: hGR G473 473G (Homo sapiens); details: immunoprecipitation DNA binding; transcription <1
[13] = tested on: hGR G437 437G (Homo sapiens); details: immunoprecipitation DNA binding; transcription 20
[14] = tested on: hGR G480 480G (Homo sapiens); details: immunoprecipitation DNA binding; transcription 90
[15] = tested on: hGR G470 470G (Homo sapiens); details: immunoprecipitation DNA binding; transcription 3
[16] = tested on: hGR G445 445G (Homo sapiens); details: immunoprecipitation DNA binding; transcription <1
[17] = tested on: hGR delta420-451 del420-451 (positions given are the non-deleted residues at the junction) (Homo sapiens); details: immunoprecipitation DNA binding; transcription <1
[18] = tested on: hGR G433 433G (Homo sapiens); details: immunoprecipitation DNA binding; transcription 2
[19] = tested on: hGR G446 446G (Homo sapiens); details: immunoprecipitation DNA binding; transcription 40; may be unstable in vitro
[20] = tested on: hGR G467 467G (Homo sapiens); details: immunoprecipitation DNA binding; transcription 40; may be unstable in vitro
[21] = tested on: hGR G441 441G (Homo sapiens); details: immunoprecipitation DNA binding; transcription <1
[22] = tested on: hGR G463 463G (Homo sapiens); details: immunoprecipitation DNA binding; transcription <1
[23] = tested on: hGR delta450-487 del450-487 (positions given are the non-deleted residues at the junction) (Homo sapiens); details: immunoprecipitation DNA binding; transcription <1
[24] = tested on: hGR G432 432G (Homo sapiens); details: immunoprecipitation DNA binding; transcription 10
[25] = tested on: hGR G421 421G (Homo sapiens); details: immunoprecipitation DNA binding; transcription <1
[26] = tested on: hGR G423 423G (Homo sapiens); details: immunoprecipitation DNA binding; transcription <1
[27] = tested on: hGR G486 486G (Homo sapiens); details: immunoprecipitation DNA binding; transcription 10; may be unstable in vitro
[28] = tested on: hGR G455 455G (Homo sapiens); details: immunoprecipitation DNA binding; transcription 80; may be unstable in vitro
[29] = tested on: hGR G479 479G (Homo sapiens); details: immunoprecipitation DNA binding; transcription 65
[30] = tested on: hGR G431 C431G (Homo sapiens); details: immunoprecipitation DNA binding; transcription 80
[31] = tested on: hGR G424 424G (Homo sapiens); details: immunoprecipitation DNA binding; transcription <1
[32] = tested on: hGR G426 D426G (Homo sapiens); details: immunoprecipitation DNA binding; transcription 75
[33] = tested on: hGR G450 450G (Homo sapiens); details: immunoprecipitation DNA binding; transcription 60
[34] = tested on: hGR G447 447G (Homo sapiens); details: immunoprecipitation DNA binding; transcription <1
[35] = tested on: hGR G438 438G (Homo sapiens); details: immunoprecipitation DNA binding; transcription <1
[36] = tested on: hGR G457 457G (Homo sapiens); details: immunoprecipitation DNA binding; transcription <1
[37] = tested on: hGR G476 476G (Homo sapiens); details: immunoprecipitation DNA binding; transcription <1
[38] = tested on: GAL4 (Saccharomyces cerevisiae); test: cell_activity; details: CAT reporter; lost on deletion of the GAL4 site
[39] = tested on: G-gal-G (hGR with DNA-binding domain replaced by GAL4 residues 1-74) (Homo sapiens / Saccharomyces cerevisiae); test: cell_activity

Substance: GRE-containing DNA fragment
- binding signal [1]: 6 % of hGR-SB
- binding signal [2]: 90 % of hGR-SB
- binding signal [3]: 95 % of hGR-SB
- binding signal [4]: 1 % of hGR-SB
- binding signal [5]: 40 % of hGR-SB
- binding signal [6]: 100%
- binding signal [7]: 1 % of hGR-SB
- binding signal [8]: 60 % of hGR-SB
- binding signal [9]: 1 % of hGR-SB
- binding signal [10]: 3 % of hGR-SB
- binding signal [11]: 60 % of hGR-SB
- binding signal [12]: < 1 % of hGR-SB
- binding signal [13]: 8 % of hGR-SB
- binding signal [14]: 50 % of hGR-SB
- binding signal [15]: 4 % of hGR-SB
- binding signal [16]: < 1 % of hGR-SB
- binding signal [17]: 1 % of hGR-SB
- binding signal [18]: 1 % of hGR-SB
- binding signal [19]: 6 % of hGR-SB
- binding signal [20]: 6 % of hGR-SB
- binding signal [21]: < 1 % of hGR-SB
- binding signal [22]: 1 % of hGR-SB
- binding signal [23]: 1 % of hGR-SB
- binding signal [24]: 30 % of hGR-SB
- binding signal [25]: < 1 % of hGR-SB
- binding signal [26]: < 1 % of hGR-SB
- binding signal [27]: 1 % of hGR-SB
- binding signal [28]: 6 % of hGR-SB
- binding signal [29]: 40 % of hGR-SB
- binding signal [30]: 10 % of hGR-SB
- binding signal [31]: 1 % of hGR-SB
- binding signal [32]: 75 % of hGR-SB
- binding signal [33]: 50 % of hGR-SB
- binding signal [34]: 2 % of hGR-SB
- binding signal [35]: < 1 % of hGR-SB
- binding signal [36]: 2 % of hGR-SB
- binding signal [37]: < 1 % of hGR-SB

Substance: deltaMTV-GAL-CAT promoter with synthetic GAL4 site 17MX
- activity [38]: 20 fold
- activity ([39]; CAT reporter, hormone dependent): 500 fold

Substance: deltaMTV-CAT promoter (GREs deleted, no GAL4 site)
- activity (% of deltaMTV-GAL-CAT) ([39]; possible cryptic GAL4 site): 5
